Reference: patent US20220073643A1 (NANJING GENSCRIPT BIOTECH, published 2022)
Substitutions are numbered along the chain they refer to.

B1: 196A12B10 (antibody, V domains shown)
VH: QIQWVQSGPELKKPRETVKISCKASGYTFTDYSMHWVKQAPGKGLKWMGWINSETGEATYADDFRGRFALSLETSATTAFLQINSLKNEDTGTYFCARFYYGNSFASWGQGTTLTVSS
VL: DIVMTQFPSSLTVTAGEKVTMTCKSSQSLLNGGNQKNYLTWYQQKPGLPPKLLIYWASTRESGVPDRFTGSGSGTEFTLTISSVQAEDLAVYYCQNNYYFPLTFGAGTKLELK
B2: 266B11F7 (antibody, V domains shown)
VH: QVQMKESGPGLVAPSQSLSITCTVSGFSLTTYGVTWVRQPPGKGLEWLGVIWGDGSTNYHSALTSRLRISKDKSKSQVFLKLSSLQTDDTATYYCAKPGRGNALDYWGQGTSVTVSS
VL: B1 VL with F7S, T22R, G32S, L48Q, I54V, E76D, I81V, N97D, Y99I
B3: 267B2C5 (antibody, V domains shown)
VH: QVQLKESGPGLVAPSQSLAITCTVSGFSLTTYGVSWVRQPPGKGLEWLGVIWGDGSTHYHSALISRLSIRKDNSKSQVFLKVNSLQTDDTATYYCGKPGRGNAMDYWGQGTSVTVSS
VL: DIVMTQSPSSLTVTAGEKVTMSCKSSQSLLNSGNQKNYLTWYQQKPGQSPKLLIYWASTRESGVPDRFTGSGSGTDFTLTISSVQAEDLAVYYCQNDYIYPLTFGGGTTLELK
B4: 267H5F12 (antibody, V domains shown)
VH: QAYLQQSGAELVRSGASVKMSCKASGYTFTSHNMHWVKQTPGQGLEWIGYISPGNGYTNYNQKFRGKATLTADTSSSTAYMQISSLTSEDSAVYFCTRDYYGNSFTYWGQGTLVTVSA
VL: DIVMTQSPSSLTEKAGERVSMSCKSSQSLFNSGNQKNYLTWYQQKPGQPPKLLIYWASTRESGVPDRFTGSGSGTEFTLTISSVQAEDLAVYYCQNNYWFPFTFGAGTKLELK
B5: 268D7H9 (antibody, V domains shown)
VH: B4 VH with S31N, H32Y, M34I, S52Y, Y57G, T58N, N59Y, R65K, T97A, T106A
VL: B3 VL with V3A, S22N, S49P, V91I, I99Y, G106A
B6: 271B1B6 (antibody, V domains shown)
VH: QAYLQQSGAELVRSGASVKMSCKASGYTFTNYNIHWVKQTPGQGLEWIGYIYPGNGGNYYNQKFKGKATLTADTSSITAYMQISSLTSEDSAVYFCARDYYGNSFAYWGQGTLVTVSA
VL: B3 VL with S22N, S49P, V91I, I99Y, G106A, T109K
B7: 273C10E5 (antibody, V domains shown)
VH: QVQLQQSGAELVKPGASVKLSCKASGYTFTSFGINWLRQRPEQGLEWIGWIFPGDGNSKYNENFKGKATLTTDKSSSTAYMQVTRLTSEDSAVYFCARFYYGNSFANWGQGTLVTVSA
VL: B3 VL with S49P, S58A, T69A, I99F, L102F, G106A, T109K
B8: 273F3D4 (antibody, V domains shown)
VH: B3 VH with A19S, S28A, V82L, G96A
VL: B3 VL with T5S, V84M, G106A, T109M
B9: 275B2G2 (antibody, V domains shown)
VH: EVMLVESGGGLVKPGGSLKLSCAASGFTFRDYTMSWVRQTPEKRLEWVATSIIGGTYTYYPDSVKGRFTISRDNVKNTLYLQMSSLRSEDTAMYYCSRLGRGNAMDYWGQGTSVTVSS
VL: B3 VL with S49P, I99S, L102F, G106S, T109K, L112I
B10: 275H9A2 (antibody, V domains shown)
VH: B4 VH with K23R, T28S, S52Y, Y57G, T58S, N59Y, R65K, T69I, T106V
VL: B4 VL with I2V, A15T, R18K, F30L, E76D, V84L, A86T, Y98F, W99R, F100Y

target: human Claudin18.2 (human); experiment: cell-based or functional assay

Binder | CDC % Relative activity [%] | CDC EC50 [µg/mL]
B1 | 93.6 | 1.69
B2 | 97.4 | 1.77
B3 | 142 | 1.21
B4 | 172 | 1
B5 | 140 | 1.23
B6 | 145 | 1.12
B7 | 67.6 | 2.41
B8 | 105 | 1.56
B9 | 98.4 | 1.66
B10 | 142 | 1.15
